Reference: paper PMC5374420, “In Search of Small Molecule Inhibitors Targeting the Flexible CK2 Subunit Interface” (Pharmaceuticals, 2017)

Biological target: T1, CK2α of MCF-10A cells (human (endogenous in MCF-10A), UniProt P68400 1-391)
T1 construct: protein kinase CK2 catalytic subunit alpha, endogenous; also called free CK2α subunit; source: endogenous, MCF-10A cells and cell extracts (WT or CK2β-depleted)
Test: thermal shift assay in cell lysates; CK2β-depleted MCF-10A cell lysates (50 mM Tris-HCl pH 7.5, 150 mM NaCl, 2% glycerol) with 50 µM TAT or TAT-Pc 13, or PBS or CK2β, 30 min at room temperature; aliquots heated 3 min; CK2 activity of the supernatants
Conditions: one partner purified

T1 sequence (P68400 whole entry): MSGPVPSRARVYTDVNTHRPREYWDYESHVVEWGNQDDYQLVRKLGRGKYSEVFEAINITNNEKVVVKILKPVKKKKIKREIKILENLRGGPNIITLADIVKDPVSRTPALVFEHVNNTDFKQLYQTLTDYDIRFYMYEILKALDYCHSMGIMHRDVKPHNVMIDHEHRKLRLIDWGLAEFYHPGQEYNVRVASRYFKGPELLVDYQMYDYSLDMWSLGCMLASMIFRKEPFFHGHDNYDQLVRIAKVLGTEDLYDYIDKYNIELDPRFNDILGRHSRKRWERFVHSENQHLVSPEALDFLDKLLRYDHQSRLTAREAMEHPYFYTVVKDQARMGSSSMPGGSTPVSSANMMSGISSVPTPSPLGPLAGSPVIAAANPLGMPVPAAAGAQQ

B1: recombinant CK2β (natural protein)
chain: not shown
notes: protein kinase CK2 regulatory subunit beta; also called protein kinase CK2 regulatory β subunit
Question: With B1 as the protein, how does the “shift of the melting curve” value read?
Answer: Its value is 3 °C.
